Experimental data as given in PMC3942532 (2014).

Biological target: dynorphin A-(1-13)-OH 1-13 (Homo sapiens, UniProt P01213)
Assay: radioligand competition

Ki: 4 nM
B1: mu opioid receptor (protein)
chain: MDSSTGPGNTSDCSDPLAQASCSPAPGSWLNLSHVDGNQSDPCGLNRTGLGGNDSLCPQTGSPSMVTAITIMALYSIVCVVGLFGNFLVMYVIVRYTKMKTATNIYIFNLALADALATSTLPFQSVNYLMGTWPFGTILCKIVISIDYYNMFTSIFTLCTMSVDRYIAVCHPVKALDFRTPRNAKIVNVCNWILSSAIGLPVMFMATTKYRQGSIDCTLTFSHPTWYWENLLKICVFIFAFIMPVLIITVCYGLMILRLKSVRMLSGSKEKDRNLRRITRMVLVVVAVFIVCWTPIHIYVIIKALITIPETTFQTVSWHFCIALGYTNSCLNPVLYAFLDENFKRCFREFCIPTSSTIEQQNSTRVRQNTREHPSTANTVDRTNHQLENLEAETAPLP
